Measurements taken from article PMC9482650, “Quantitative fragmentomics allow affinity mapping of interactomes” (Nature Communications, 2022).

T1: DFNB31_1, Q9P202
T1 sequence (Q9P202 135-233, limits assumed, looked up): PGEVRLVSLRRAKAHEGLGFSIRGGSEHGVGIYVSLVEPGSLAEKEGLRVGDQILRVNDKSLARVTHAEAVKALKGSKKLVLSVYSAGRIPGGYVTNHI

T2: LIN7C, Q9NUP9
T2 sequence (Q9NUP9 88-185, limits assumed, looked up): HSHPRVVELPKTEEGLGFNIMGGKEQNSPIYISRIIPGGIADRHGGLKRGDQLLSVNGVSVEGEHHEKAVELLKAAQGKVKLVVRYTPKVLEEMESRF

T3: LNX2_3, Q8N448
T3 sequence (Q8N448 463-564, limits assumed, looked up): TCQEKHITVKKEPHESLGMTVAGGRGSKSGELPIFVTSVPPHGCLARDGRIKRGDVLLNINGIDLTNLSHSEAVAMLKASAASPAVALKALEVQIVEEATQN

T4: HTRA3, P83110
T4 sequence (P83110 354-453, limits assumed, looked up): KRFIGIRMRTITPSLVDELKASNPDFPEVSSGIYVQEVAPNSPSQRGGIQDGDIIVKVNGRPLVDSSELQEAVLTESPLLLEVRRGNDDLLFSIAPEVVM

T5: SNTA1, Q13424
T5 sequence (Q13424 82-180, limits assumed, looked up): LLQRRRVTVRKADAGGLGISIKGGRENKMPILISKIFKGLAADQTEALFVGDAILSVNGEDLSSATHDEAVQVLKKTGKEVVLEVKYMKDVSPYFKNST

T6: ARHGAP21, Q5T5U3
T6 sequence (Q5T5U3 45-169, limits assumed, looked up): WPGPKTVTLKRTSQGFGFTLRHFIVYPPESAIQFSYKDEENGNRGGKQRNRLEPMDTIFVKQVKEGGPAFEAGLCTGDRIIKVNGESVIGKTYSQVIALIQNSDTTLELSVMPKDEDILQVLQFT

T7: PDZD2_2, O15018
T7 sequence (O15018 329-429, limits assumed, looked up): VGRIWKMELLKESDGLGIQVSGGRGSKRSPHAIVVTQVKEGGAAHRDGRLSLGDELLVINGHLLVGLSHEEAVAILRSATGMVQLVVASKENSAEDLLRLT

T8: PARD3B_1, Q8TEW8
T8 sequence (Q8TEW8 196-299, limits assumed, looked up): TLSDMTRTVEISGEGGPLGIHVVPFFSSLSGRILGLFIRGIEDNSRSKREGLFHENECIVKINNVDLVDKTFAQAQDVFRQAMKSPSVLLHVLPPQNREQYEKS

T9: GRIP1_7, Q9Y3R0
T9 sequence (Q9Y3R0 999-1096, limits assumed, looked up): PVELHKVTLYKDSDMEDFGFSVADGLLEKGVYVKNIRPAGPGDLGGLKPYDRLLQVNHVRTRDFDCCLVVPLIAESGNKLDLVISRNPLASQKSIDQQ

T10: MPDZ_5, O75970
T10 sequence (O75970 695-796, limits assumed, looked up): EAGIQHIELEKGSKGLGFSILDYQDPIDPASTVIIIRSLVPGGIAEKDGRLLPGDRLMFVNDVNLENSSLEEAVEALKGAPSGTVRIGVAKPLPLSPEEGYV

T11: TX1BP3, O14907
T11 sequence (O14907 10-122, limits assumed, looked up): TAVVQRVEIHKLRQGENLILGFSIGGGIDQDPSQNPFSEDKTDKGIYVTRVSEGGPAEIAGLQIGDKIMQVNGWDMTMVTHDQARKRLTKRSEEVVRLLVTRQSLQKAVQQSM


Legend:
Assay in all cases: holdup assay
Set-up in all cases: key: below the threshold = too weak to quantify, mostly under pKd 3.1 to 4
Conditions in all cases: plain residues with an end cap or a label only (N-terminal biotin on a linker: ado-ado)
[1] = molecular target: T1, DFNB31_1, Q9P202
[2] = molecular target: FRMPD3, Q5JV73
FRMPD3, Q5JV73, sequence (Q5JV73 12-100): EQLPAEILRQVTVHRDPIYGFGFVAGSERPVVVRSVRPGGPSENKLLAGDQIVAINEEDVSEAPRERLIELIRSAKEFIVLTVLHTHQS

[3] = molecular target: T2, LIN7C, Q9NUP9
[4] = molecular target: GRID2IP_2, A4D2P6
GRID2IP_2, A4D2P6, sequence (A4D2P6 272-370): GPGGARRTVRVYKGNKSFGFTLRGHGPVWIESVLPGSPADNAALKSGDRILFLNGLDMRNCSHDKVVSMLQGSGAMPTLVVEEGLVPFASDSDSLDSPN

[5] = molecular target: SCRIB_2, Q14160
SCRIB_2, Q14160, sequence (Q14160 857-960): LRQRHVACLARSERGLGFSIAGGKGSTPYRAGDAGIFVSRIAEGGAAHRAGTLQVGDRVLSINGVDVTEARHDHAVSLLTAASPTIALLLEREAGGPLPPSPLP

[6] = molecular target: T3, LNX2_3, Q8N448
[7] = molecular target: T4, HTRA3, P83110
[8] = molecular target: GORASP2, Q9H8Y8
[9] = molecular target: T5, SNTA1, Q13424
[10] = molecular target: TJP1_2, Q07157
TJP1_2, Q07157, sequence (Q07157 181-274): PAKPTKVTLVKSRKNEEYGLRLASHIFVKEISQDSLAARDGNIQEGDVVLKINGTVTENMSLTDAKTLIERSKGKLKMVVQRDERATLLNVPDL

[11] = molecular target: T6, ARHGAP21, Q5T5U3
[12] = molecular target: T7, PDZD2_2, O15018
[13] = molecular target: DLG2_3, Q15700
[14] = molecular target: Inadl_1, Q8NI35
Inadl_1, Q8NI35, sequence (Q8NI35 113-229): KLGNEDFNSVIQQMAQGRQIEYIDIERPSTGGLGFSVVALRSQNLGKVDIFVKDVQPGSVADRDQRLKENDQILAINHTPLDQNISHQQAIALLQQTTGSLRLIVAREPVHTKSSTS

[15] = molecular target: T8, PARD3B_1, Q8TEW8
[16] = molecular target: FRMPD2_1, Q68DX3
FRMPD2_1, Q68DX3, sequence (Q68DX3 770-861): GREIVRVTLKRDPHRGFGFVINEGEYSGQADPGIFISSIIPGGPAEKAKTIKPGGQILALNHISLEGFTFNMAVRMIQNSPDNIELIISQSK

[17] = molecular target: GOPC, Q9HD26
[18] = molecular target: LAP2, Q96RT1
LAP2, Q96RT1, sequence (Q96RT1 other isoform, or with tags, fused parts or gaps): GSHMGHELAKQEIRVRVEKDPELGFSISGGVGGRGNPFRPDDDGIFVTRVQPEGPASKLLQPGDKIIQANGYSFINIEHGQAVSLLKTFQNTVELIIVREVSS

[19] = molecular target: T9, GRIP1_7, Q9Y3R0
[20] = molecular target: T10, MPDZ_5, O75970
[21] = molecular target: GIPC2, Q8TF65
GIPC2, Q8TF65, sequence (Q8TF65 112-203): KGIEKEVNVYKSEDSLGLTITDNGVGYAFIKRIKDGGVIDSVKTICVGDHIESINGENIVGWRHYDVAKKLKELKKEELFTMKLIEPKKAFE

[22] = molecular target: Inadl_3, Q8NI35
Inadl_3, Q8NI35, sequence (Q8NI35 359-469): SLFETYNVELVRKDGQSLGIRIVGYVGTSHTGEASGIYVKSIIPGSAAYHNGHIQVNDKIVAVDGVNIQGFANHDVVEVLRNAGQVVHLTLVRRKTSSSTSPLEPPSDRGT

[23] = molecular target: T11, TX1BP3, O14907
[24] = molecular target: Inadl_5, Q8NI35
Inadl_5, Q8NI35, sequence (Q8NI35 673-780): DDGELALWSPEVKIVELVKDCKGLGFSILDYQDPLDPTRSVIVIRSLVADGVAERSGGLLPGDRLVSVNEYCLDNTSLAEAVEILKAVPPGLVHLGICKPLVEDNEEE

[25] = molecular target: NHERF2_2, Q15599
NHERF2_2, Q15599, sequence (Q15599 142-238): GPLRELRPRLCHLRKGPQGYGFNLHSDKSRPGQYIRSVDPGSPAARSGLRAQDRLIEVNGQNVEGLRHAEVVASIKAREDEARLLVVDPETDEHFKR

pKd [1]	pKd [2]	pKd [3]	pKd [4]	pKd [5]	pKd [6]	pKd [7]	pKd [8]	pKd [9]	pKd [10]	pKd [11]	pKd [12]	pKd [13]	pKd [14]	pKd [15]	pKd [16]	pKd [17]	pKd [18]	pKd [19]	pKd [20]	Binder	also measured
below the threshold	below the threshold	below the threshold	4.38	below the threshold	below the threshold	4.24	below the threshold	below the threshold	below the threshold	below the threshold	4.75	3.8	below the threshold	below the threshold	below the threshold	below the threshold	below the threshold	below the threshold	below the threshold	SAAKVLTSMC [GHRHR, Q02643]	pKd [21]: below the threshold; pKd [22]: below the threshold; pKd [23]: 3.54; pKd [24]: below the threshold; pKd [25]: below the threshold
4.86	below the threshold	below the threshold	below the threshold	3.55	below the threshold	below the threshold	below the threshold	3.73	below the threshold	4.1	4.46	below the threshold	below the threshold	3.47	below the threshold	below the threshold	below the threshold	below the threshold	below the threshold	MLSKQSESAI [FLVCR1, Q9Y5Y0]	pKd [21]: 3.74; pKd [22]: below the threshold; pKd [23]: 4.1; pKd [24]: below the threshold; pKd [25]: below the threshold
3.94	below the threshold	4.36	below the threshold	4.12	below the threshold	below the threshold	below the threshold	3.57	below the threshold	below the threshold	below the threshold	3.88	below the threshold	3.96	below the threshold	below the threshold	below the threshold	below the threshold	below the threshold	TASPAKETSF [SLC2A7, Q6PXP3]	pKd [21]: below the threshold; pKd [22]: below the threshold; pKd [23]: 3.79; pKd [24]: below the threshold; pKd [25]: 4.66
below the threshold	below the threshold	3.69	3.54	below the threshold	below the threshold	4.6	below the threshold	below the threshold	below the threshold	below the threshold	4.35	3.53	below the threshold	below the threshold	below the threshold	below the threshold	below the threshold	below the threshold	below the threshold	RKPKPSSSCC [RAB9A, P51151]	pKd [21]: 3.73; pKd [22]: below the threshold; pKd [23]: 3.89; pKd [24]: below the threshold; pKd [25]: below the threshold

More lines, now with the values behind:

Binder	pKd [1]	pKd [2]	pKd [3]	pKd [4]	pKd [5]	pKd [6]	pKd [7]	pKd [8]	pKd [9]	pKd [10]	pKd [11]	pKd [12]	pKd [13]	pKd [14]	pKd [15]	pKd [16]	pKd [17]	pKd [18]	pKd [19]	pKd [20]	also measured
QSARLWETSI [ADAM22, Q9P0K1]	5.41	below the threshold	4.5	4.3	4.71	below the threshold	below the threshold	3.55	4.49	below the threshold	below the threshold	4.46	4.47	3.84	3.78	below the threshold	4.42	3.96	below the threshold	below the threshold	pKd [21]: 4.11; pKd [22]: 4.92; pKd [23]: 4.8; pKd [24]: below the threshold; pKd [25]: 3.83
YRLAQESGLV [ABCC6, O95255]	below the threshold	below the threshold	4.01	below the threshold	below the threshold	below the threshold	below the threshold	below the threshold	below the threshold	below the threshold	4.1	3.51	below the threshold	below the threshold	4.13	below the threshold	below the threshold	below the threshold	below the threshold	below the threshold	pKd [21]: below the threshold; pKd [22]: below the threshold; pKd [23]: below the threshold; pKd [24]: below the threshold; pKd [25]: below the threshold
